This note sets out measurements from patent US8895245.

For data set [1], the system named is Biotinylated histone H3:21-44 peptide containing monomethylated K27.
The test system of data set [2] is Biotinylated histone H3:21-44 peptide containing dimethylated K27.
The subject of data set [3] is Chicken erythrocyte oligonucleosomes.
Data set [4] deals with Biotinylated histone H3:21-44 peptide containing unmethylated K27.

As for “Recombinant five-component PRC2 complex containing Y641F mutant EZH2”, the results for the K (K1/2, concentration of peptide resulting in half-maximal velocity) in data set [1], in data set [2] and in data set [4] were 404 nM, 191 nM and 240 nM, respectively. For the same substance, the K (Km for nucleosome) in data set [3] amounted to 0.176 µM.
In the case of “Recombinant five-component PRC2 complex containing Y641H mutant EZH2”, the K (K1/2, concentration of peptide resulting in half-maximal velocity) in data set [1] was determined as 319 nM; in data set [2], 148 nM. This substance also yielded a K (Km for nucleosome) in data set [3] of 0.14 µM.
As for “Recombinant five-component PRC2 complex containing Y641N mutant EZH2”, the K (K1/2, concentration of peptide resulting in half-maximal velocity) was determined as 280 nM in data set [1] and 157 nM in data set [2]. In data set [3], this substance showed a K (Km for nucleosome) of 0.191 µM.
As for “Recombinant five-component PRC2 complex containing Y641S mutant EZH2”, the K (K1/2, concentration of peptide resulting in half-maximal velocity) in data set [1] was 249 nM; in data set [2] it was 136 nM. The substance also displayed a K (Km for nucleosome) in data set [3] of 0.137 µM.
